Patent publication US20140072613A1, “Compositions and Methods for Treating Cutaneous Scarring” (priority 2012, published 2014)

Key:
Assay in all cases: biochemical
Assay type in all cases: biochemical
[1] = molecular target: 266 human kinases (Homo sapiens, UniProt O15530); conditions: PDK1(h); 100 μM
Outline: (§1)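 Steps: kinase transfers radiolabelled phosphate from ATP onto a positively charged substrate; the substrate is trapped on a negatively charged filter; bound radioactivity is counted by scintillation and compared with uninhibited (100%) activity.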

[2] = molecular target: 266 human kinases (Homo sapiens, UniProt P00519, T315I); conditions: Abl(T315I)(h); 100 μM
Outline: as §1

[3] = molecular target: 266 human kinases (Homo sapiens, UniProt P05771); conditions: PKCβI(h); 100 μM
266 human kinases (Homo sapiens, UniProt P05771), sequence (P05771 whole entry): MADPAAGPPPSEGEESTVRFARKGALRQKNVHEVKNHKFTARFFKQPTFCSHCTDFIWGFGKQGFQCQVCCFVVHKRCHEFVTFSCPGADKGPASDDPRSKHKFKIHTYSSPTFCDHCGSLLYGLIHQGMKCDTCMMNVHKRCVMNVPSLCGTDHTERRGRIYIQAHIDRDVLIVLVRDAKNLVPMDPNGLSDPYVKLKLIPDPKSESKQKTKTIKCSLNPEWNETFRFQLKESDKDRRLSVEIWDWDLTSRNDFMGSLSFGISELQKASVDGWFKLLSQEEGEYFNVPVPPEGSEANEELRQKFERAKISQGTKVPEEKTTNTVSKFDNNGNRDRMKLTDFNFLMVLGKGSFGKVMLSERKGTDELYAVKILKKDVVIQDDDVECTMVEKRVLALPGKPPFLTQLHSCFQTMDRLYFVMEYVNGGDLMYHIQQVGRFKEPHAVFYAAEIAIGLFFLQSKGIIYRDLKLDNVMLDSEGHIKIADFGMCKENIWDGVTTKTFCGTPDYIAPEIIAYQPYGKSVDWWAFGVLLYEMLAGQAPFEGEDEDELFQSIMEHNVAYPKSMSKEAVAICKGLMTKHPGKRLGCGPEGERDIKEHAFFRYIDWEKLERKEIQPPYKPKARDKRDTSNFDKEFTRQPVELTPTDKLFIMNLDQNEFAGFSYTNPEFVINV
Outline: as §1

[4] = molecular target: 266 human kinases (Homo sapiens, UniProt P08581, Y1230C); conditions: Met(Y1248C)(h); 100 μM
Outline: as §1

[5] = molecular target: 266 human kinases (Homo sapiens, UniProt P10721, D816V); conditions: cKit(D816V)(h); 100 μM
Outline: as §1

[6] = molecular target: 266 human kinases (Homo sapiens, UniProt P23443); conditions: p70S6K(h); 100 μM
266 human kinases (Homo sapiens, UniProt P23443), sequence (P23443 whole entry): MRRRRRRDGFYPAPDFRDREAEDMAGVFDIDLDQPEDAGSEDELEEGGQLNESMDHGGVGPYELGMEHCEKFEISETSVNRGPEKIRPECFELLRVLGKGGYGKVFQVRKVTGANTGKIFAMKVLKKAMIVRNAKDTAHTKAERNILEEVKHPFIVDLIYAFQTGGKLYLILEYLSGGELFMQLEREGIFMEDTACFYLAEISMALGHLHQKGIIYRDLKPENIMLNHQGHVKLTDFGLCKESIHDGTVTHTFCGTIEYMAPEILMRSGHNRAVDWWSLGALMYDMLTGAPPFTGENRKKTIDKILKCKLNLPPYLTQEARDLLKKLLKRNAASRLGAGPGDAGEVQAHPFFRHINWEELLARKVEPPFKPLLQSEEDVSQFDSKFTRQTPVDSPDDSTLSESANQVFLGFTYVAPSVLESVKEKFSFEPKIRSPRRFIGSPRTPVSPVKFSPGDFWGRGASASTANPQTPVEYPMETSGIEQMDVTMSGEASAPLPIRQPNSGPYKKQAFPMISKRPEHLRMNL
Outline: as §1

[7] = molecular target: 266 human kinases (Homo sapiens, UniProt P30530); conditions: Axl(h); 100 μM
Outline: as §1

[8] = molecular target: 266 human kinases (Homo sapiens, UniProt P51812); conditions: Rsk2(h); 100 μM
266 human kinases (Homo sapiens, UniProt P51812), sequence (P51812 whole entry): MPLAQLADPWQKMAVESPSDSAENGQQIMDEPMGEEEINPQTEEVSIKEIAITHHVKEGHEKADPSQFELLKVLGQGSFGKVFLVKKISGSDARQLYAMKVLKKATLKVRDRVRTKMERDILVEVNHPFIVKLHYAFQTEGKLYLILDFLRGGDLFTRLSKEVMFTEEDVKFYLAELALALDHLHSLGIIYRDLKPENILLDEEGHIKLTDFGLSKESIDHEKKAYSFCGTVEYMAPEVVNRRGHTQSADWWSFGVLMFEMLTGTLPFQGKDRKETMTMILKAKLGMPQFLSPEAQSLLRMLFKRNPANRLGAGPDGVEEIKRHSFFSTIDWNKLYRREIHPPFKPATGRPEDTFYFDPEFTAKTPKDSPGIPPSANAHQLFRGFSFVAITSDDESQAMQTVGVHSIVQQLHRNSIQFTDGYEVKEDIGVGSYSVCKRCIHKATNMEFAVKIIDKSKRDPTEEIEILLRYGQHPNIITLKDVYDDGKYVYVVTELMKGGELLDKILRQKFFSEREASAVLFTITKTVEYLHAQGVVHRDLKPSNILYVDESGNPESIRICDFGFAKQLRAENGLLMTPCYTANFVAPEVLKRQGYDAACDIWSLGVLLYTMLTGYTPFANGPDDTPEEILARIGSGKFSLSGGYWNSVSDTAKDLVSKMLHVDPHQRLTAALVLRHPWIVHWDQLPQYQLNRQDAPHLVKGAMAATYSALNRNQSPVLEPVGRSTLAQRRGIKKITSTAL
Outline: as §1

[9] = molecular target: 266 human kinases (Homo sapiens, UniProt P54646); conditions: AMPKα2(h); 100 μM
266 human kinases (Homo sapiens, UniProt P54646), sequence (P54646 whole entry): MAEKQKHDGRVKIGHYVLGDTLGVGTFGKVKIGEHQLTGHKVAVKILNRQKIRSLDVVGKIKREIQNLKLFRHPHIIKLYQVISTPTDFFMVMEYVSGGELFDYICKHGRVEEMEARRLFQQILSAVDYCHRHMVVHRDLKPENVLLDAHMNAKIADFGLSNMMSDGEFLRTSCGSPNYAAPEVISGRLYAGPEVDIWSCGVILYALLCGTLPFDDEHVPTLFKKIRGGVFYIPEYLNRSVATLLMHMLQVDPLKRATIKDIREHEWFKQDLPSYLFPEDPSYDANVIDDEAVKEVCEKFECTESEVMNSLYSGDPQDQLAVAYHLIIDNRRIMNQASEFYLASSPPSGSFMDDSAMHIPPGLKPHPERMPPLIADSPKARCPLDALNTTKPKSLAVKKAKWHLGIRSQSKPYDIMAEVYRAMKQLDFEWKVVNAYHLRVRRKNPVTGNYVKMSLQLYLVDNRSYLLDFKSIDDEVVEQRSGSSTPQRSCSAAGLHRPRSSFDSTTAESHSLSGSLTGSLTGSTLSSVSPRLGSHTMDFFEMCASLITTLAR
Outline: as §1

[10] = molecular target: T1, 266 human kinases (Homo sapiens, UniProt Q13976); conditions: PKG1α(h); 100 μM
T1 sequence (Q13976 1-671): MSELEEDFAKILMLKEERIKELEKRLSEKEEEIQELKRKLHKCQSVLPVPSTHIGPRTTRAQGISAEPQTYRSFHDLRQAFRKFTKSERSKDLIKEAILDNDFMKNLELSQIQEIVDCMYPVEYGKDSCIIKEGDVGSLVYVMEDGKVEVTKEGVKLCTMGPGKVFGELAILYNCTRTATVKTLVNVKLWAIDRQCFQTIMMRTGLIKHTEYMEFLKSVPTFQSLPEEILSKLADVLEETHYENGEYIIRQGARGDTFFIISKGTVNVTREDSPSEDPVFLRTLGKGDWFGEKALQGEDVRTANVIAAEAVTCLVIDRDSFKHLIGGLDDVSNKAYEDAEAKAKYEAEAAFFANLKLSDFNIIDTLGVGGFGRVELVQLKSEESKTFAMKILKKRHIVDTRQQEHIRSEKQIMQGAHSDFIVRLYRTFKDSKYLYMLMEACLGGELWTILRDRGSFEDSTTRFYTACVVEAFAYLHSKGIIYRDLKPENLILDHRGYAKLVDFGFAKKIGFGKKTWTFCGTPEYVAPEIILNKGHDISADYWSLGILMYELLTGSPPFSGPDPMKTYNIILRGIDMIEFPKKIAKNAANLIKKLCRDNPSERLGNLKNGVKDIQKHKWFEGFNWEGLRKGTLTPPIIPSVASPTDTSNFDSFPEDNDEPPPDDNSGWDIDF
Outline: as §1

[11] = molecular target: T2, 266 human kinases (Homo sapiens, UniProt Q8TDC3); conditions: BrSK1(h); 100 μM
T2 sequence (Q8TDC3 1-778): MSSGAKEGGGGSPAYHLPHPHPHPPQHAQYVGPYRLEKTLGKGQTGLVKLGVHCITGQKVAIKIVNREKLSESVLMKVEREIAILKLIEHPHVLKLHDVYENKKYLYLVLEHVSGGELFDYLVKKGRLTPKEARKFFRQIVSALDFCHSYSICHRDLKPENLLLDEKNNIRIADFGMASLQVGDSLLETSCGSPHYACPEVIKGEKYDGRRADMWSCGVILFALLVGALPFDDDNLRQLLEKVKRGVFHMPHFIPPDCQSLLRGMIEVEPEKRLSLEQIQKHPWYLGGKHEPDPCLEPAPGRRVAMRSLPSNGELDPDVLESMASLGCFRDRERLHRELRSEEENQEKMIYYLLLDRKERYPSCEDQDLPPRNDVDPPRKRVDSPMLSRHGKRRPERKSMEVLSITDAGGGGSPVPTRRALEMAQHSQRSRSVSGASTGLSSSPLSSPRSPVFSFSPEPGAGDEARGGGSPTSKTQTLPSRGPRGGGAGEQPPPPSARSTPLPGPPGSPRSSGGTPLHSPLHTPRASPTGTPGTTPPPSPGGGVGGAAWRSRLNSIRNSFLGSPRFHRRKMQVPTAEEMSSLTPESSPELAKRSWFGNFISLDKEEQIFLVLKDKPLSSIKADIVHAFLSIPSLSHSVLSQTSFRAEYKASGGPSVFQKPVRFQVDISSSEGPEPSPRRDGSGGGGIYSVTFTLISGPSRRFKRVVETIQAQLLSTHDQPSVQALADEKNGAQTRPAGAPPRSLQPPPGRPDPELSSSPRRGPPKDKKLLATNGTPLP
Outline: as §1

[12] = molecular target: 266 human kinases (Homo sapiens, UniProt Q9UM73); conditions: ALK(h); 100 μM
266 human kinases (Homo sapiens, UniProt Q9UM73), sequence (Q9UM73 19-1620): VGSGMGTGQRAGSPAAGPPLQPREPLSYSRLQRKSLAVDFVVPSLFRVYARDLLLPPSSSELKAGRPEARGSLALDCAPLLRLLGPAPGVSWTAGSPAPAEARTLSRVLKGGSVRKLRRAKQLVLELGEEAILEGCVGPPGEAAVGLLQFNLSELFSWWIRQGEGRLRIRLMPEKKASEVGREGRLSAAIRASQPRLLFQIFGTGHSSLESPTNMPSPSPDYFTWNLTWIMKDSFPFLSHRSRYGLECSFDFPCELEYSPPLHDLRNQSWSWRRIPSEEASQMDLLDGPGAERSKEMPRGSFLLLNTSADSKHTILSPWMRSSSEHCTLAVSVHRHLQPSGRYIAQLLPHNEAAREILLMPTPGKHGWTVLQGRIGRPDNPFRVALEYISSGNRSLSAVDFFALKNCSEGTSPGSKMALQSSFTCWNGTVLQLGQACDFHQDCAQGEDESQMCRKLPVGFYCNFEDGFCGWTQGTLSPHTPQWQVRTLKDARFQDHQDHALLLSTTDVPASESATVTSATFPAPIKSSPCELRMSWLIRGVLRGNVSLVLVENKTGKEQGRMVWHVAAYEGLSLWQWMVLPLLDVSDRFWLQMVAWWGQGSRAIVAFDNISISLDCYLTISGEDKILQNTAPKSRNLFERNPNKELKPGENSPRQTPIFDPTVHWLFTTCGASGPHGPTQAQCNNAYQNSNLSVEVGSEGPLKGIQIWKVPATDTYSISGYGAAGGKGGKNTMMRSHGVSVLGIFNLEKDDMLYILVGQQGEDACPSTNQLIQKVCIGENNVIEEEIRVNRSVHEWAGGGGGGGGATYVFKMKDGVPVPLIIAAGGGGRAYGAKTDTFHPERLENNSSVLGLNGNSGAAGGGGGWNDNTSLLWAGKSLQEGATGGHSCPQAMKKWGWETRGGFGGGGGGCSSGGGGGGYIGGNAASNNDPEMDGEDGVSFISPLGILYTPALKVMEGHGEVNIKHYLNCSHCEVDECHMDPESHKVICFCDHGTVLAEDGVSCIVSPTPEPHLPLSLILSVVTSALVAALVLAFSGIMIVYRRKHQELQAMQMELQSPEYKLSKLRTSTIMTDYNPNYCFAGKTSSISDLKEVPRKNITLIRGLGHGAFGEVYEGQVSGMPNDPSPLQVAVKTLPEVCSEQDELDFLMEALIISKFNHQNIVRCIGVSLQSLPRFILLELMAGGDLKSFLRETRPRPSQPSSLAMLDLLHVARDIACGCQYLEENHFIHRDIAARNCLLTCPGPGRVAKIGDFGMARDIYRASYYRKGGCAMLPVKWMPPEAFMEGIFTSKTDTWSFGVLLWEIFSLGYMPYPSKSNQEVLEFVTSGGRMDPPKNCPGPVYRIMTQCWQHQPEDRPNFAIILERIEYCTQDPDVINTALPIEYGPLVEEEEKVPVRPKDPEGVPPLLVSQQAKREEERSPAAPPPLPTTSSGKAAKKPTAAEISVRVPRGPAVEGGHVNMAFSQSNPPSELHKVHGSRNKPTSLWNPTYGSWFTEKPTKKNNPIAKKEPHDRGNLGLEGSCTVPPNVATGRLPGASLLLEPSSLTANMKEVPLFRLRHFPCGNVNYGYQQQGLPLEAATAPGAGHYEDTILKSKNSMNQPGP
Outline: as §1

266 human kinases (Homo sapiens, UniProt O15530), sequence (O15530 whole entry): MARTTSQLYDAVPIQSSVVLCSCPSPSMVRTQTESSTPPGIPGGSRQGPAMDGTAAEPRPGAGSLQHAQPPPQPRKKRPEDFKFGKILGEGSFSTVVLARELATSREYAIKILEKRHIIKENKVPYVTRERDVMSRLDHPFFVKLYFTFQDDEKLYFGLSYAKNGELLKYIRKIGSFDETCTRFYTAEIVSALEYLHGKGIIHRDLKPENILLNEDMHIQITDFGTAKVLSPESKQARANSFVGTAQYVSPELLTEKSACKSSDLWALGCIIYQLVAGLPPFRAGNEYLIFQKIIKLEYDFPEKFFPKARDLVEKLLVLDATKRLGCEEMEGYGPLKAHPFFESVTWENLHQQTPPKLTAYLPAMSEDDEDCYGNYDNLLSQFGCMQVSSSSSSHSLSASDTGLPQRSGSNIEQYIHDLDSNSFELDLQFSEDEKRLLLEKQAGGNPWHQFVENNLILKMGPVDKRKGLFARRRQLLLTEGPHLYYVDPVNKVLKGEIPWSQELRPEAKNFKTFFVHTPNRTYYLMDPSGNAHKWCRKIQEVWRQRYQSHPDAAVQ

Sequence	% activity [1]	% activity [2]	% activity [3]	% activity [4]	% activity [5]	% activity [6]	% activity [7]	% activity [8]	% activity [9]	% activity [10]	% activity [11]	% activity [12]
HRRIKAWLKKIKALARQLGVAA (mammal) [MMI-0500]	178%	16%	1%	73%	30%	3%	12%	14%	9%	25%	72%	12%
YARAAARQARAKALNRQLGVA (mammal) [MMI-0200]	143%	108%	98%	141%	118%	84%	99%	101%	88%	70%	93%	95%
